# Assay results as given in patent US20130196320A1, “METHOD FOR IMPROVING CLEAVAGE OF DNA BY ENDONUCLEASE SENSITIVE TO METHYLATION” (CELLECTIS, priority 2010, published 2013).
# Tests used:
# [1] = system: XPC4 target CpG motives in 293H cells; assay: DNA methylation of XPC4 target by bisulfite treatment and sequencing, siRNA targeting DNMT1; format: cell-based, human; settings: for amount of unmethylated C, % of total: one of the two CpG of XPC4 target; for amount of unmethylated C: the other CpG of XPC4 target
# From the text: FIG. 15: Chromatogram. In order to determine the methylation status of the two CpG motives present in the XPC4 target sequence, genomic DNA was extracted, and treated with bisulfite. Bisulfite treatment is based on a chemical reaction of sodium bisulfite with DNA that converts unmethylated cytosines into uracil whereas methylated cytosines remain unchanged. DNA was then amplified by PCR and sequenced. […] For one of the two CpG ([…]; SEQ ID NO: 24) the amount of unmethylated C was estimated to 20 and 30% of total after 1 nM and 5 nM of si_DNMT1, respectively. For the other CpG ([…]; SEQ ID NO: 24) the amount of unmethylated C was estimated to 25 and 50% after 1 nM and 5 nM of si_DNMT1, respectively.
# (§1) The human 293H cells (ATCC) were plated at a density of 1.2×10^6 cells per 10 cm dish in complete medium (DMEM supplemented with 2 mM L-glutamine, penicillin (100 IU/ml), streptomycin (100 μg/ml), amphotericin B (Fongizone: 0.25 μg/ml, Invitrogen-Life Science) and 10% FBS). The next day, cells were transfected with 5 μg of empty vector pCLS003 (SEQ ID NO: 65) and 1 nM or 5 nM of si_DNMT1 composed of mixture of two siRNA DNMT1—1 ([…], SEQ ID NO: 66) and DNMT1—2 ([…], SEQ ID NO: 67) or with si_AS, a siRNA control with no known human target, using Lipofectamine 2000 as transfection reagent (Invitrogen) according to the manufacturer's protocol. The day after, cells were re-platted at the density of 1.2×10^6 cells per 10 cm. 24 hours after, cells were transfected again with 1 nM or 5 nM of siDNMT1 or si_AS in presence of 3 μg of meganuclease expressing vector (pCLS2510; SEQ ID NO: 68) and 2 μg of empty vector or 5 μg of empty vector (SEQ ID NO: 65), with Lipofectamine 2000 transfection reagent (Invitrogen) according to the manufacturer's protocol.
# To assess the level DNA methylation, DNA sequencing was performed after a bisulfite treatment according to the instructions of the manufacturer (EZ DNA methylation-Gold Kit, Zymo Research). After genomic DNA extraction, the XPC4 target locus was amplified by PCR with specific primers
# [2] = system: XPC4 target locus in 293H cells; assay: Meganuclease-induced mutagenesis at XPC4 target locus by deep sequencing, siRNA targeting DNMT1; format: cell-based, human; settings: for mutagenesis, PCR fragments carrying a mutation: Empty vector
# Description: as §1
# After genomic DNA extraction, the XPC4 target locus was amplified with specific primers flanked by specific adaptator needed for HTS sequencing on the 454 sequencing system (454 Life Sciences)
# 5,000 to 10,000 sequences per sample were analyzed.
# [3] = system: RAG target in human RAG1 gene, 293H cells; assay: Meganuclease-induced mutagenesis assay at RAG recognition site; format: cell-based; settings: RAG meganuclease
# Description: (§2) The human 293H cells (ATCC) were plated at a density of 1.2×10^6 cells per 10 cm dish in complete medium (DMEM supplemented with 2 mM L-glutamine, penicillin (100 IU/ml), streptomycin (100 μg/ml), amphotericin B (Fongizone: 0.25 μg/ml, Invitrogen-Life Science) and 10% FBS). The cells were pre-treated with 5-aza-deoxycytidine at 0.2 μM or 1 μM, 48 hours before transfection and the treatment was maintained 48 hours post-transfection. The medium was changed every day. The cells were transfected with 3 μg of DNA plasmids encoding meganuclease for RAG or 2.5 μg of each monomer CAPNS1 using Lipofectamine 2000 transfection reagent (Invitrogen) according to the manufacturer's protocol.
# (§3) The efficiency of the meganuclease to promote mutagenesis at its endogenous recognition site was evaluated by sequencing the DNA surrounding the meganuclease cleavage site. Two days post-transfection, genomic DNA was extracted. 200 ng of genomic DNA were used to amplify (PCR amplification) the endogenous locus surrounding the meganuclease cleavage site. PCR amplification is performed to obtain a fragment flanked by specific adaptor sequences [adaptor A: 5′-[…]-NNNN-3′(SEQ ID NO: 46) and adaptor B, 5′-[…]-3′ (SEQ ID NO: 47)] provided by the company offering sequencing service (GATC Biotech AG, Germany) on the 454 sequencing system (454 Life Sciences). The primers sequences used for PCR amplification were:
# RAG_F1: 5′-[…]-NNNN-[…] (SEQ ID NO: 57) and
# (§4) RAG_R1: 5′-[…]-[…]-3′ (SEQ ID NO: 58) and CAPNS1_J3: 5′-[…]-NNNN-[…] (SEQ ID NO: 59) and CAPNS1_R3: 5′-[…]-[…]-3′ (SEQ ID NO: 60). Sequences specific to the locus are underlined. The sequence NNNN in primer F1 is a Barcode sequence (Tag) needed to link the sequence with a PCR product. The percentage of PCR fragments carrying insertion or deletion at the meganuclease cleavage site is related to the mutagenesis induced by the meganuclease through NHEJ pathway in a cell population, and therefore correlates with the meganuclease activity at its endogenous recognition site. 5000 to 10000 sequences were analyzed per conditions.
# C1221 DNA target = assay: In vitro cleavage assay with C1221 duplex, increasing meganuclease concentration; format: biochemical
# Description: FIG. 2: In vitro cleavage of unmethylated or methylated C1221 by I-CreI. A constant amount of C1221 (50 nM) was incubated with increasing concentrations of I-CreI (0 to 2 μM) in reaction buffer (10 mM Tris-HCl, 150 mM NaCl, 10 mM MgCl2, pH8) for an hour at 37° C. The reaction was stopped and the remaining uncleaved C1221 was quantify and plotted as function of I-CreI concentration.
# FIG. 3: In vitro cleavage of unmethylated or methylated C1221 by I-CreI D75N. 50 nM C1221 containing either 0, 1, 2 or 3 methylated CG was incubated with increasing concentrations of I-CreI D75N (0 to 2 μM) in reaction buffer (10 mM Tris-HCl, 150 mM NaCl, 10 mM MgCl2, pH8) for an hour at 37° C. The reaction was stopped and cleaved and uncleaved C1221 (top and bottom panel respectively) were quantify and plotted as function of I-CreI D75N concentration.
# To investigate the influence of C1221 methylation on the nuclease activity of I-CreI, an in vitro cleavage assay with either unmethylated or fully methylated C1221 duplex (SEQ ID NOs: 4-5 and 12-13 respectively) was performed. A constant amount of C1221 duplex (50 nM) was incubated with increasing concentration of I-CreI (0 to 2 μM) in a total volume of 25 μL of reaction buffer (10 mM Tris-HCl, 150 mM NaCl, 10 mM MgCl2, pH8). Cleavage reaction was allowed to proceed 1 hour at 37° C. and then stopped by addition of 5 μL of 6× stop buffer (45% glycerol, 95 mM EDTA, 1.5% (w/v) SDS, 1.5 mg/mL proteinase K and 0.048% (w/v) bromophenol blue) followed by an hour incubation at 37° C. Cleaved and uncleaved DNA products were separated by PAGE using a TGX Any kD precast gel (Bio-Rad), stained with SYBR Green and then quantified using Quantity One software (Bio-Rad).
# To investigate the influence of C1221 methylation on the nuclease activity of I-CreI D75N, in vitro cleavage assay with C1221 duplex containing either 0, 1, 2 or 3 methylated CG (SEQ ID NOs: 4-5, 6-7, 8-9, 10-11 respectively) was performed, according to the procedure described for I-CreI wild type.
# [4] = system: CAPNS1 target in human CAPNS1 gene, 293H cells; assay: Meganuclease-induced mutagenesis assay at CAPNS1 recognition site; format: cell-based; settings: CAPNS1 meganuclease
# Description: as §2, §3, §4
molecule,measurement,setting,value
"si_DNMT1: mixture of two siRNA DNMT1—1 (SEQ ID NO: 66) and DNMT1—2 (SEQ ID NO: 67) targeting DNMT1 gene (chain 1 ACGGTGCTCATGCTTACAACC; chain 2 CCCAATGAGACTGACATCAAA; mixture of two siRNAs, further chemistry not given here)","amount of unmethylated C, % of total",[1]; 1 nM,20%
same,"amount of unmethylated C, % of total",[1]; 5 nM,30%
same,amount of unmethylated C,[1]; 1 nM,25%
same,amount of unmethylated C,[1]; 5 nM,50%
same,"mutagenesis, PCR fragments carrying a mutation",[2]; Si_DNMT1 1 nM,0.022%
same,"mutagenesis, PCR fragments carrying a mutation",[2]; Si_DNMT1 5 nM,0.055%
same,mutagenesis,"[2]; empty vector, 1 or 5 nM of si_DNMT1",low or absent
RAG: engineered single chain meganuclease (SEQ ID NO: 61) designed to cleave a sequence in the human RAG1 gene (protein) MANTKYNEEFLLYLAGFVDGDGSIIAQINPNQSSKFKHRLRLTFYVTQKTQRRWFLDKLVDEIGVGYVRDSGSVSQYVLSEIKPLHNFLTQLQPFLELKQKQANLVLKIIEQLPSAKESPDKFLEVCTWVDQIAALNDSKTRKTTSETVRAVLDSLSGKKKSSPAAGGSDKYNQALSKYNQALSKYNQALSGGGGSNKKFLLYLAGFVDSDGSIIAQIKPRQSNKFKHQLSLTFAVTQKTQRRWFLDKLVDRIGVGYVYDSGSVSDYRLSEIKPLHNFLTQLQPFLKLKQKQANLVLKIIEQLPSAKESPDKFLEVCTWVDQIAALNDSKTRKTTSETVRAVLDSLSEKKKSSP,"mutagenesis, PCR fragments carrying a mutation",[3]; 0 μM 5-aza-2′-deoxycytidine,0.76% ± 0.02
same,"mutagenesis, PCR fragments carrying a mutation","[3]; 0 μM 5-aza-2′-deoxycytidine, listed as RAG meganuclease",0.75%±0.02
same,"mutagenesis, PCR fragments carrying a mutation",[3]; 0.2 μM 5-aza-2′-deoxycytidine,0.71% ± 0.17
same,"mutagenesis, PCR fragments carrying a mutation","[3]; 0.2 μM 5-aza-2′-deoxycytidine, listed as RAG meganuclease",0.71%±0.17
same,"mutagenesis, PCR fragments carrying a mutation",[3]; 1 μM 5-aza-2′-deoxycytidine,0.59% ± 0.3
same,"mutagenesis, PCR fragments carrying a mutation","[3]; 1 μM 5-aza-2′-deoxycytidine, listed as RAG meganuclease",0.59%±0.31
"I-CreI D75N: I-CreI D75N meganuclease variant, SEQ ID NO: 22 (protein) MANTKYNKEFLLYLAGFVDGDGSIIAQIKPNQSYKFKHQLSLAFQVTQKTQRRWFLDKLVDEIGVGYVRDRGSVSDYILSEIKPLHNFLTQLQPFLKLKQKQANLVLKIIWRLPSAKESPDKFLEVCTWVDQIAALNDSKTRKTTSETVRAVLDSLSEKKKSSPAAD",increase of C50,C1221 DNA target; C1221 with one methyl group on both strand vs unmethylated,about 3 folds
same,increase of C50,C1221 DNA target; C1221 with three methyl groups vs unmethylated,more than 10 folds
same,increase of C50,C1221 DNA target; C1221 with two methyl groups vs unmethylated,more than 10 folds
same,meganuclease concentration at which C1221 cleaved product leveled up,C1221 DNA target; unmethylated C1221,about 500 nM
same,EC50,"C1221 DNA target; unmethylated C1221, 1 hour at 37° C., read-out: C50 (concentration of meganuclease needed to cleave 50% of C1221)",100 to 150 nM
CAPNS1: engineered heterodimer meganuclease (SEQ ID NO: 62+SEQ ID NO: 63) cleaving the 5′ UTR of the human CAPNS1 gene (protein) chain 1: MANTKYNKEFLLYLAGFVDSDGSIIAQIKPRQSYKFKHQLRLTFYVTQKTQRRWFLDKLVDEIGVGYVEDSGSVSRYVLSEIKPLHNFLTQLQPFLKLKQKQANLVLKIIEQLPSAKESPDKFLEVCTWVDQVAALNDSKTRKTTSETVRAVLDSLSEKKKSSPAAD chain 2: MANTKYNKEFLLYLAGFVDGDGSIVAQIKPNQRAKFKHQLSLTFQVTQKTQRRWLLDKLVDEIGVGYVQDSGSVSNYRLSEIKPLHNFLTQLQPFLKLKQKQANLVLKIIEQLPSAKESPDKFLEVCTWADQIAALNDSKTRKTTSETVRAVLDSLSEKKKPSPAAD,"mutagenesis, PCR fragments carrying a mutation",[4]; 0 μM 5-aza-2′-deoxycytidine,6.10% ± 0.43
same,"mutagenesis, PCR fragments carrying a mutation","[4]; 0 μM 5-aza-2′-deoxycytidine, listed as CAPNS1 meganuclease",6.1%±0.43
same,"mutagenesis, PCR fragments carrying a mutation",[4]; 0.2 μM 5-aza-2′-deoxycytidine,6.55% ± 0.77
same,"mutagenesis, PCR fragments carrying a mutation","[4]; 0.2 μM 5-aza-2′-deoxycytidine, listed as CAPNS1 meganuclease",6.55%±0.77
same,"mutagenesis, PCR fragments carrying a mutation",[4]; 1 μM 5-aza-2′-deoxycytidine,4.34% ± 0.95
same,"mutagenesis, PCR fragments carrying a mutation","[4]; 1 μM 5-aza-2′-deoxycytidine, listed as CAPNS1 meganuclease",4.34%±0.95
